FRET efficiency and FRET efficiency with 8R10Q data for 1 substance are collected here from article PMC6974936.

The target of test [1] is N-terminus Huntingtin exon 1 fragment harboring pathological (109Q) polyglutamine repeats, fused with eCFP or eYFP. Briefly: FRET or BRET; frequency-domain FLIM-FRET (phasor trajectory) in living Neuro2a cells co-expressing 109QHtt-eCFP and 109QHtt-eYFP; aggregated fraction; no peptide.
For test [2] the target is unchanged. Put plainly: FRET or BRET; frequency-domain FLIM-FRET (phasor trajectory) in living Neuro2a cells co-expressing eCFP (donor) and eYFP (acceptor) fusions; soluble fraction; no peptide. In general terms: In BRET a luciferase serves as donor, and the signal depends on an acceptor being close.
For test [3] the target is unchanged. Put plainly: FRET or BRET; frequency-domain FLIM-FRET (phasor trajectory) in living Neuro2a cells co-expressing 109QHtt-eCFP and 109QHtt-eYFP; soluble fraction; cells treated with 8R10Q.
The target is the same in test [4]. Put plainly: FRET or BRET; frequency-domain FLIM-FRET (phasor trajectory) in living Neuro2a cells co-expressing 109QHtt-eCFP and 109QHtt-eYFP; aggregated fraction; cells treated with 8R10Q.

Chain of N-terminus Huntingtin exon 1 fragment harboring pathological (109Q) polyglutamine repeats, fused with eCFP or eYFP (P42858 whole entry, change not shown, the tested form may be a part): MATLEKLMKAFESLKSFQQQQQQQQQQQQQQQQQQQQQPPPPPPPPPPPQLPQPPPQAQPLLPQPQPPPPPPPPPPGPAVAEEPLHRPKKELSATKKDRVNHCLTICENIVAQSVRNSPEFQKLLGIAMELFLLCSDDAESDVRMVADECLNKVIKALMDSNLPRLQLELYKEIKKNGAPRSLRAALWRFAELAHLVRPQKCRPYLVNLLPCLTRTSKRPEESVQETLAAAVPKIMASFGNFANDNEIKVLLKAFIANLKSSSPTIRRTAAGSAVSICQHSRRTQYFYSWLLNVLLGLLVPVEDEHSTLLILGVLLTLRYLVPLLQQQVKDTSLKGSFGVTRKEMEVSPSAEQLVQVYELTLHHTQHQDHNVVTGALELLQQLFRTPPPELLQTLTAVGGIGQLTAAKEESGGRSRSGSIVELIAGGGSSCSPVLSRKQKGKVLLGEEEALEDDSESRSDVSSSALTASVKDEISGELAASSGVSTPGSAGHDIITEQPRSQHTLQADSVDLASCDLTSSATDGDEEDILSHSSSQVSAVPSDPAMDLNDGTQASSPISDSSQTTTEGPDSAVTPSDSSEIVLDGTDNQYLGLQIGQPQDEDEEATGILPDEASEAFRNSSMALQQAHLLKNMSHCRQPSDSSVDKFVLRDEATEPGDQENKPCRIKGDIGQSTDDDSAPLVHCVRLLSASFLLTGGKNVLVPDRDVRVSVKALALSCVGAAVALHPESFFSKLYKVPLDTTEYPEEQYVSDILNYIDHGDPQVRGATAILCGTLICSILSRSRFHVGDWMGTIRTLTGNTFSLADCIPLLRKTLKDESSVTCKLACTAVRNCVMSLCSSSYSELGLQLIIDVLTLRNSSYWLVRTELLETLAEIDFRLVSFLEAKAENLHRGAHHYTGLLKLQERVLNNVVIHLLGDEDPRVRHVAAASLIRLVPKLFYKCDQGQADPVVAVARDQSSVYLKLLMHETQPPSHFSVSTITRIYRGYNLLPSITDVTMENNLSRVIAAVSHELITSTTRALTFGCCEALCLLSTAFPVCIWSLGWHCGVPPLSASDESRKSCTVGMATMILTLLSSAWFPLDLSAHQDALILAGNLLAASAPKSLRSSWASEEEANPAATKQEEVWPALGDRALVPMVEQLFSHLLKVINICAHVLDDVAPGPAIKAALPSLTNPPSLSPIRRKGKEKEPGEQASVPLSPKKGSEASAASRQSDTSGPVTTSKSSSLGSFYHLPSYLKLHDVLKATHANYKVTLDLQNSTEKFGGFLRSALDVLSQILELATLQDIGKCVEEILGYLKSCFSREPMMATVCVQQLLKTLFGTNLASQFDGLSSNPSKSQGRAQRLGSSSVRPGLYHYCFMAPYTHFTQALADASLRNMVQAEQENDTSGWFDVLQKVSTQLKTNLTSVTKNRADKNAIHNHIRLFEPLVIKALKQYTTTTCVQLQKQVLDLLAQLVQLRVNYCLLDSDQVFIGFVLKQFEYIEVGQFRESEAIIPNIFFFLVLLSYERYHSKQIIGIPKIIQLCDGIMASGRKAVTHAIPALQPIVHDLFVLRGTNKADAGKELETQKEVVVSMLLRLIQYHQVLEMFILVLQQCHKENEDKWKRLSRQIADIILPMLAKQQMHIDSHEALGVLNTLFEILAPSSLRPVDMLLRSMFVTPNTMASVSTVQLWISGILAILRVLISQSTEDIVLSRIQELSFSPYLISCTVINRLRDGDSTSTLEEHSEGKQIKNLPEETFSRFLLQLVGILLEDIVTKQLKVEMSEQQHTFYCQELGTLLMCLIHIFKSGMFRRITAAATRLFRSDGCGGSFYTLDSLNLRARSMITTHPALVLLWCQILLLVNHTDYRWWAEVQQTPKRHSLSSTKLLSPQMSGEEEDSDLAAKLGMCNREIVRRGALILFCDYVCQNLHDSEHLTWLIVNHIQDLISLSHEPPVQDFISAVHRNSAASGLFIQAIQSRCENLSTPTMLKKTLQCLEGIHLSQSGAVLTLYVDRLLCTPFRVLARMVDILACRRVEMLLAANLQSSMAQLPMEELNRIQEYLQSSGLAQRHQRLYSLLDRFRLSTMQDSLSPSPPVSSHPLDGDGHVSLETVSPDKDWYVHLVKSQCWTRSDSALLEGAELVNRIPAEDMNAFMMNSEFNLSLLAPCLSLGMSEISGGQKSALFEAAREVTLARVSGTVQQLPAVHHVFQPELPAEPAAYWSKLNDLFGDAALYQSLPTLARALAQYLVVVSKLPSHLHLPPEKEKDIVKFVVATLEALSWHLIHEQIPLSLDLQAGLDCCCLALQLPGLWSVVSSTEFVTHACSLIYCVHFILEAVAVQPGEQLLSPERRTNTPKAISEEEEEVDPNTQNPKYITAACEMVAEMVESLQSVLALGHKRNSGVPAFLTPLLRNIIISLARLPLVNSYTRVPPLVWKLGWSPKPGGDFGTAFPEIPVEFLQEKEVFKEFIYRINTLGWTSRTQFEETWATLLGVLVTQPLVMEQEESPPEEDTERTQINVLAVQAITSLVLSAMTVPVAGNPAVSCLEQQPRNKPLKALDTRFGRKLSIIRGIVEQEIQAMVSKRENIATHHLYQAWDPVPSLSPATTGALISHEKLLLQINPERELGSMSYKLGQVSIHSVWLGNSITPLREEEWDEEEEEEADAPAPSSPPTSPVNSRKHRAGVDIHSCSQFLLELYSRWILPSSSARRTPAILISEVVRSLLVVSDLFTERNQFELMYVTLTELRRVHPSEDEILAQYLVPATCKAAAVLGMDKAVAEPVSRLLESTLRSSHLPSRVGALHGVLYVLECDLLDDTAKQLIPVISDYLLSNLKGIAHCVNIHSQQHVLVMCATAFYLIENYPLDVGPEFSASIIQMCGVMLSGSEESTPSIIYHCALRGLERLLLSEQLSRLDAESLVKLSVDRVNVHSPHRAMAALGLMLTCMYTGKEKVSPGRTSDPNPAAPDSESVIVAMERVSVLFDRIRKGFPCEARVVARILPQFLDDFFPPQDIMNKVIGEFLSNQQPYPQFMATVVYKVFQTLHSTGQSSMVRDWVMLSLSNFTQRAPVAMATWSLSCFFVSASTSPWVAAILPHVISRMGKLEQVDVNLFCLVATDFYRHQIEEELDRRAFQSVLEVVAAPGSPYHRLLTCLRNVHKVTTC

For “N-terminus Huntingtin exon 1 fragment harboring pathological (109Q) polyglutamine repeats, fused with eCFP or eYFP (domain or fragment)”, the FRET efficiency came to 41.8% in test [1] and 8.7% in test [2]. The FRET efficiency with 8R10Q in test [3] is 4.5%; in test [4], 16.4%.
